For experiment [1], the target named is Sinorhizobium meliloti glutaredoxin 2 (SmGrx2), untagged (Sinorhizobium meliloti (strain Sm2011)). The experiment in a line: ITC; SmGrx2 (50 µM, in the cell) titrated with SmYrbA (800 µM), 30 mM phosphate buffer pH 8.0, 20°C, one-set-of-sites model, duplicate.
Experiment [2] has as its target N-terminal His-tagged SmYrbA (Sinorhizobium meliloti (strain Sm2011)). The experiment in a line: switchSENSE; His-tagged SmYrbA held on Ni-NTA3-tagged 48mer DNA nanolevers on the chip; SmGrx2 injected at 25, 50 and 100 µM; 10 mM potassium phosphate pH 7.4, 2 mM MgCl2; 25°C; switching dynamic mode; single-exponential fits; Kd = koff/kon.

The results in this text go back to article PMC7538681.

Chain of N-terminal His-tagged SmYrbA (Sinorhizobium meliloti (strain Sm2011)) (main, as listed by the source): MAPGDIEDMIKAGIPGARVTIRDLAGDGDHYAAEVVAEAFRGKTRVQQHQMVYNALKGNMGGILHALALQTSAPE

Regarding “Sinorhizobium meliloti YrbA (SmYrbA), untagged (natural protein)”, in experiment [1], the Kd (in general, the equilibrium constant for the complex coming apart) was 6.8 µM; the dH was -2.9 kcal/mol; the stoichiometry N (usually the number of molecules, sites or subunits per partner or assembly) was determined as 1.27.
In the case of “Sinorhizobium meliloti glutaredoxin 2 (SmGrx2), untagged (natural protein)”, in experiment [2], the Kd was 5.6 µM, the dissociation halftime turned out to be 50 s, the dissociation rate constant (koff) (commonly the first-order rate constant of dissociation) is 0.014 s⁻¹ and the kon (usually the second-order rate constant of association) worked out at 2410 M⁻¹ s⁻¹.
